In patent US20190359687A1:

Key:
[1] = molecular target: Cynomolgus monkey glycophorin A on Cynomolgus monkey red blood cells (Cynomolgus monkey); assay: FACS, RBC Cy01
[2] = molecular target: Rhesus monkey glycophorin A on Rhesus monkey red blood cells (Rhesus monkey); assay: FACS, RBC Rh03
[3] = molecular target: Cynomolgus monkey glycophorin A on Cynomolgus monkey red blood cells (Cynomolgus monkey); assay: FACS, RBC Cy02
[4] = molecular target: Rhesus monkey glycophorin A on Rhesus monkey red blood cells (Rhesus monkey); assay: FACS, RBC Rh01
[5] = molecular target: Rhesus monkey glycophorin A on Rhesus monkey red blood cells (Rhesus monkey); assay: FACS, RBC Rh02
[6] = molecular target: endogenous Cynomolgus monkey FVIII in whole blood (Cynomolgus monkey); assay: cell-based or functional assay
Sequence of endogenous Cynomolgus monkey FVIII in whole blood (Cynomolgus monkey) (chain, as listed by the source): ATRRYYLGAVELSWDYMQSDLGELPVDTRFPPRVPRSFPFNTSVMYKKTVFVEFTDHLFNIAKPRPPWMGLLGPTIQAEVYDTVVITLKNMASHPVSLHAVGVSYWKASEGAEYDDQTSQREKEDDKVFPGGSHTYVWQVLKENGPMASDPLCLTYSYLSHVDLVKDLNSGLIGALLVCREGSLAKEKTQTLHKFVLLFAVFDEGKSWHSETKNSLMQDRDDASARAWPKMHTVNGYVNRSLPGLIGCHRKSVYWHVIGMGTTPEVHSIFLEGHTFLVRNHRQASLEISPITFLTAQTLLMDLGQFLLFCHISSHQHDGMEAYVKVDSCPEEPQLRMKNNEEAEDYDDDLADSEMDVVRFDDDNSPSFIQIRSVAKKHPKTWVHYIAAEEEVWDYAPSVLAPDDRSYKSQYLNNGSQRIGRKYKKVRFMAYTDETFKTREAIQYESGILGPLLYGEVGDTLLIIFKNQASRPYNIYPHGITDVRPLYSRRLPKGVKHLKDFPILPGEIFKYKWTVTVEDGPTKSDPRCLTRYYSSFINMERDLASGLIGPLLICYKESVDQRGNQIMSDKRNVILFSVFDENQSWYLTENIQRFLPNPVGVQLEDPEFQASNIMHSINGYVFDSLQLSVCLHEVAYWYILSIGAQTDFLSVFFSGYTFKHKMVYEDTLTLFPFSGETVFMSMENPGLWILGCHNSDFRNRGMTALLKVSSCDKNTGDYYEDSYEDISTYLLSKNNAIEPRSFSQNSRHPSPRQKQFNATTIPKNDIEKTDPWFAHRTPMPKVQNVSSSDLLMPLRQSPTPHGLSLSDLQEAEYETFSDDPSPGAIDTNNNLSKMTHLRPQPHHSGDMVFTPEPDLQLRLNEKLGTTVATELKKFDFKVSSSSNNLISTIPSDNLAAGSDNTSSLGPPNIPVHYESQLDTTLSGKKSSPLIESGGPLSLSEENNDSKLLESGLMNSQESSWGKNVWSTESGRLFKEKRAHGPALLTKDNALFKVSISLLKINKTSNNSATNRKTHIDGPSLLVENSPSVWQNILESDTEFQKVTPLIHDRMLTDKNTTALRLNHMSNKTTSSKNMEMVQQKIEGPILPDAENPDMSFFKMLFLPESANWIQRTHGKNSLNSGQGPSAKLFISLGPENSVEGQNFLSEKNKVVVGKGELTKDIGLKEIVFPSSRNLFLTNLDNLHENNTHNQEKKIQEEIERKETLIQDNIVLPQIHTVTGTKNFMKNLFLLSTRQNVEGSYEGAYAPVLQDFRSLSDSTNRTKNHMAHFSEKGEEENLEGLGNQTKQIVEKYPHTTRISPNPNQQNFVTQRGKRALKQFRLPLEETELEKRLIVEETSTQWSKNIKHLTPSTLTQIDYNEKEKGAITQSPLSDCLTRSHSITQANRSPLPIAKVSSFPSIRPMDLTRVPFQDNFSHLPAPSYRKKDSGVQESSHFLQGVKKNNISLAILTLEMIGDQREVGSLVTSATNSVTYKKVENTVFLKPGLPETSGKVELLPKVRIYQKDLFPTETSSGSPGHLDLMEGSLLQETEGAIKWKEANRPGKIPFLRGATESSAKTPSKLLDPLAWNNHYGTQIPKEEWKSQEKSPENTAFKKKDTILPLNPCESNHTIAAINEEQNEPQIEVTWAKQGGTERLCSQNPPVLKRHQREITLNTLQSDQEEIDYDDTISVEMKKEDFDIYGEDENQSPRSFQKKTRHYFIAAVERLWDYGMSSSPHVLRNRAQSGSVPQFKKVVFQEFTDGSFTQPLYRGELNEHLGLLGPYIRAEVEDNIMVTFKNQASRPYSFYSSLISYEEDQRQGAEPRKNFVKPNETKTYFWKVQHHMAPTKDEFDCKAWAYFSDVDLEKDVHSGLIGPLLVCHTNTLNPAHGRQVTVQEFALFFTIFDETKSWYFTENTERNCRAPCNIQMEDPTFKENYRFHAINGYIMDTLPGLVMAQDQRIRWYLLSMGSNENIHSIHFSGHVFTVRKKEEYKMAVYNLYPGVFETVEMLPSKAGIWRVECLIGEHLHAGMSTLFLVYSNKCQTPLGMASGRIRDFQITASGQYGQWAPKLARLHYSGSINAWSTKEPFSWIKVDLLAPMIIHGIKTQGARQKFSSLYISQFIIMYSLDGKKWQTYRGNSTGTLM

Sequence of Rhesus monkey glycophorin A on Rhesus monkey red blood cells (Rhesus monkey) (chain, as listed by the source, form in doubt): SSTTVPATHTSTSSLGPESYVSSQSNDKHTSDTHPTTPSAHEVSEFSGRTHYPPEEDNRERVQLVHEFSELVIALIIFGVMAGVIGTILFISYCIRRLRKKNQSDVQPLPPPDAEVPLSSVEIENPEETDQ

fluorescence intensity [1] | fluorescence intensity [2] | fluorescence intensity [3] | fluorescence intensity [4] | fluorescence intensity [5] | Hemochron aPTT clotting time, Cyno whole blood [6] [s] | Substance
2 | 2 | 3 | 2 | 2 | – | Hu igG isotype (antibody)
– | – | – | – | – | 180 | anti-FVIII neutralizing monoclonal antibody BO2C11
